Key:
Assay in all cases: yeast two-hybrid, mating, His3/LacZ reporters
[1] = molecular target: T1, SID polypeptide of SEQ ID No 28, NS5A (100%), HCV strain H77 nt 6557-6721 (hepatitis C virus strain H77, UniProt P27958 2073-2125)
T1 construct: Intersection of yeast two-hybrid prey fragments; also called SID NS5A (100%)
T1 sequence: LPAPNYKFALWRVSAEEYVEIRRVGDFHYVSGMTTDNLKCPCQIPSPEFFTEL

[2] = molecular target: T2, SID polypeptide of SEQ ID No 16, NS4B (100%), HCV strain H77 nt 5918-6154 (hepatitis C virus strain H77, UniProt P26664 1860-1936)
T2 construct: Intersection of yeast two-hybrid prey fragments; also called SID NS4B (100%)
T2 sequence: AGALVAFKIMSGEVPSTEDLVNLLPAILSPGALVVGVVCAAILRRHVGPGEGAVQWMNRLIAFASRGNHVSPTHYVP

[3] = molecular target: T3, Bait polypeptide of SEQ ID No 77, Core (87%), HCV strain H77 nt 302-614 (hepatitis C virus strain H77)
T3 construct: also called Bait Core (87%)
T3 chain: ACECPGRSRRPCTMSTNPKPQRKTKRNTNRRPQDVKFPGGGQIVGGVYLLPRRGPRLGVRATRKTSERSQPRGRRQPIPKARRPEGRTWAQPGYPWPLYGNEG

[4] = molecular target: T4, Bait polypeptide of SEQ ID No 78, Core (100%), HCV strain H77 nt 342-683 (hepatitis C virus strain H77, UniProt P27958 1-113)
T4 construct: also called Bait Core (100%)
T4 sequence: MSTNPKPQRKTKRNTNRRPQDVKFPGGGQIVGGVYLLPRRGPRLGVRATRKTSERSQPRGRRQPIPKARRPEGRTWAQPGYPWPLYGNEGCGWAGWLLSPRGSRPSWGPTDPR

[5] = molecular target: T5, Bait polypeptide of SEQ ID No 89, NS3 (100%), HCV strain H77 nt 4691-5168 (hepatitis C virus strain H77, UniProt P26664 1451-1608)
T5 construct: also called Bait NS3 (100%)
T5 chain: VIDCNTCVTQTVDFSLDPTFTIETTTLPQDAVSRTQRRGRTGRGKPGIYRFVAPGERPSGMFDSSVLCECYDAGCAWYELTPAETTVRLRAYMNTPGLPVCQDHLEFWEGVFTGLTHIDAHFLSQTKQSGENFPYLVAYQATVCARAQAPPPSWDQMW

[6] = molecular target: T6, Bait polypeptide of SEQ ID No 87, NS3 (100%), HCV strain H77 nt 4238-4857 (hepatitis C virus strain H77, UniProt P27958 1300-1504)
T6 construct: also called Bait NS3 (100%)
T6 chain: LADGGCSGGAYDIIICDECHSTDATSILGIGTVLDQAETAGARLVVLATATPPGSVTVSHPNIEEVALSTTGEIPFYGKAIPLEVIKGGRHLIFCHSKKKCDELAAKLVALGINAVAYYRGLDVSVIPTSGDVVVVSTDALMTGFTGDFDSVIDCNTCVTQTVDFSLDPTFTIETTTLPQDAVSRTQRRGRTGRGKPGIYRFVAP

[7] = molecular target: T7, Bait polypeptide of SEQ ID No 90, NS3 (100%), HCV strain H77 nt 4838-5230 (hepatitis C virus strain H77, UniProt P26664 1500-1628)
T7 construct: also called Bait NS3 (100%)
T7 chain: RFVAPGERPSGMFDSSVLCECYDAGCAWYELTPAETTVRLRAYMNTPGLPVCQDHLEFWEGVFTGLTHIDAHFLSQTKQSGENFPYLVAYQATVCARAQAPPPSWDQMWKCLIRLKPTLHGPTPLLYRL

[8] = molecular target: T8, Bait polypeptide of SEQ ID No 102, NS5A (100%), HCV strain H77 nt 6317-6576 (hepatitis C virus strain H77, UniProt P26664 1993-2077)
T8 construct: also called Bait NS5A (100%)
T8 chain: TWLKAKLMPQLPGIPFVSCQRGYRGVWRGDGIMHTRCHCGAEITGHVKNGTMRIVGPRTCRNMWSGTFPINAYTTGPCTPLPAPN

[9] = molecular target: T9, Bait polypeptide of SEQ ID No 101, NS4B (9%)/NS5A (90%), HCV strain H77 nt 6188-6939 (hepatitis C virus strain H77, UniProt P27958 1950-2198)
T9 construct: also called Bait NS4B (9%)/NS5A (90%)
T9 chain: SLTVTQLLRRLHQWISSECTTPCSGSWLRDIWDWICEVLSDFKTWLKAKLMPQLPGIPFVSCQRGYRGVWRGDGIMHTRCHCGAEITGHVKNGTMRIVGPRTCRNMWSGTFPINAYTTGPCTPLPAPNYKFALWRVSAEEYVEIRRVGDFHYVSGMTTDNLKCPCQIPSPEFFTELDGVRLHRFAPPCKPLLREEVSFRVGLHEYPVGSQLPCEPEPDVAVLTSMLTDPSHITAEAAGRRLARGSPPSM

[10] = molecular target: T10, SID polypeptide of SEQ ID No 23, NS4B (100%), HCV strain H77 nt 5879-6072 (hepatitis C virus strain H77, UniProt Q913V3 1847-1909)
T10 construct: Intersection of yeast two-hybrid prey fragments; also called SID NS4B (100%)
T10 sequence: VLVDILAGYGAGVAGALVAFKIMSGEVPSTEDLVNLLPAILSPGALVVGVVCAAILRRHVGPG

[11] = molecular target: T11, Bait polypeptide of SEQ ID No 97, NS4B (100%), HCV strain H77 nt 6011-6177 (hepatitis C virus strain H77, UniProt O92972 1891-1944)
T11 construct: also called Bait NS4B (100%)
T11 sequence: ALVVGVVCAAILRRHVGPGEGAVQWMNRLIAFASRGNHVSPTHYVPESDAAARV

[12] = molecular target: T12, Bait polypeptide of SEQ ID No 100, NS4B (8%)/NS5A (91%), HCV strain H77 nt 6182-7034 (hepatitis C virus strain H77, UniProt P27958 1948-2230)
T12 construct: also called Bait NS4B (8%)/NS5A (91%)
T12 chain: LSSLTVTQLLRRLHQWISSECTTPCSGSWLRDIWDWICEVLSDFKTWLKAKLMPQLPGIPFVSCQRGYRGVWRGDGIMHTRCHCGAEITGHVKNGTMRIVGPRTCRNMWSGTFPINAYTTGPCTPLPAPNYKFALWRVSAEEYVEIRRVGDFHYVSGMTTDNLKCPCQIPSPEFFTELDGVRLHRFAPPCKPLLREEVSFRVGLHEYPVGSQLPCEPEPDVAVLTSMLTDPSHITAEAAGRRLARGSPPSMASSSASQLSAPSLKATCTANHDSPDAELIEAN

[13] = molecular target: T13, Bait polypeptide of SEQ ID No 93, NS4B (86%)/NS5A (13%), HCV strain H77 nt 5717-6344 (hepatitis C virus strain H77, UniProt P26664 1793-2000)
T13 construct: also called Bait NS4B (86%)/NS5A (13%)
T13 chain: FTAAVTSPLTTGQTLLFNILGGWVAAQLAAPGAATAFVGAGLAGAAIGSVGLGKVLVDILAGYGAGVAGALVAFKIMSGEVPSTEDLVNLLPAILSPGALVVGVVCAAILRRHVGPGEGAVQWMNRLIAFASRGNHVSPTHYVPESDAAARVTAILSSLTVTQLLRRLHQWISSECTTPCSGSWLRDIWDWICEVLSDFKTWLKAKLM

[14] = molecular target: T14, Bait polypeptide of SEQ ID No 96, NS4B (82%)/NS5A(17%), HCV strain H77 nt 5897-6335 (hepatitis C virus strain H77, UniProt P26664 1853-1997)
T14 construct: also called Bait NS4B (82%)/NS5A(17%)
T14 sequence: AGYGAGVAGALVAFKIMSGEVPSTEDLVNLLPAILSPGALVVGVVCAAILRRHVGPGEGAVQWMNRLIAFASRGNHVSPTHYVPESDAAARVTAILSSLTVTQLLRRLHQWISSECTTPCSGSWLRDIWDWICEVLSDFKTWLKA

[15] = molecular target: T15, Bait polypeptide of SEQ ID No 95, NS4B (55%)/NS5A (44%), HCV strain H77 nt 5882-6562 (hepatitis C virus strain H77, UniProt P26664 1848-2072)
T15 construct: also called Bait NS4B (55%)/NS5A (44%)
T15 chain: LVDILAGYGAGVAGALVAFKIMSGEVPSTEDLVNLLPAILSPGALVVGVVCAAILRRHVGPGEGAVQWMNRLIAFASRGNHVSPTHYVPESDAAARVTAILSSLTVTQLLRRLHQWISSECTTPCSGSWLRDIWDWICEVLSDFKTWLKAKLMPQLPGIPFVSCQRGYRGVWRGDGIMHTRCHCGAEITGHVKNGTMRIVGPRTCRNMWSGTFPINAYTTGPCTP

B1: Bait polypeptide of SEQ ID No 103, NS5A (100%), HCV strain H77 nt 6440-6727 (other)
chain: EITGHVKNGTMRIVGPRTCRNMWSGTFPINAYTTGPCTPLPAPNYKFALWRVSAEEYVEIRRVGDFHYVSGMTTDNLKCPCQIPSPEFFTELDG
notes: also called Bait NS5A (100%)
binding result [1]: binds

B2: Bait polypeptide of SEQ ID No 91, NS3 (1%)/NS4A (98%), HCV strain H77 nt 5310-5467 (other)
chain: TSTWVLVGGVLAALAAYCLSTGCVVIVGRIVLSGKPAIIPDREVLYQEFDE
notes: also called Bait NS3 (1%)/NS4 A (98%)
binding result [2]: binds

B3: SID polypeptide of SEQ ID No 1, Core (100%), HCV strain H77 nt 446-600 (other)
chain: LLPRRGPRLGVRATRKTSERSQPRGRRQPIPKARRPEGRTWAQPGYPWPL
notes: Intersection of yeast two-hybrid prey fragments; also called SID Core (100%)
binding result [3]: binds

B4: SID polypeptide of SEQ ID No 2, NS3 (100%), HCV strain H77 nt 4814-4922 (other)
chain: GRGKPGIYRFVAPGERPSGMFDSSVLCECYDAGCA
notes: Intersection of yeast two-hybrid prey fragments; also called SID NS3 (100%)
binding result [4]: binds

B5: SID polypeptide of SEQ ID No 14, E2 (100%), HCV strain H77 nt 1784-1888 (other)
chain: ERPYCWHYPPRPCGIVPAKSVCGPVYCFTPSPV
notes: Intersection of yeast two-hybrid prey fragments; also called SID E2 (100%)
binding result [5]: binds

B6: SID polypeptide of SEQ ID No 12, NS5B (100%), HCV strain H77 nt 7979-8109 (other)
chain: not shown
notes: Intersection of yeast two-hybrid prey fragments; also called SID NS5B (100%)
binding result [6]: binds

B7: SID polypeptide of SEQ ID No 15, E2 (100%), HCV strain H77 nt 1871-1968 (other)
chain: PSPVVVGTTDRSGAPTYSWGANDTDVFVLNN
notes: as for B5
binding result [7]: binds

B8: SID polypeptide of SEQ ID No 27, NS3 (100%), HCV strain H77 nt 4784-4928 (other)
chain: VSRTQRRGRTGRGKPGIYRFVAPGERPSGMFDSSVLCECYDAGCAWY
notes: as for B4
binding result [8]: binds

B9: SID polypeptide of SEQ ID No 26, NS4B (70%)/NS5A (28%), HCV strain H77 nt 6176-6291 (other)
chain: AILSSLTVTQLLRRLHQWISSECTTPCSGSWLRDIWD
notes: Intersection of yeast two-hybrid prey fragments; also called SID NS4B (70%)/NS5A (28%)
binding result [9]: binds

B10: Bait polypeptide of SEQ ID No 98, NS4B (30%)/NS5A (69%), HCV strain H77 nt 6107-6605 (other)
chain: ASRGNHVSPTHYVPESDAAARVTAILSSLTVTQLLRRLHQWISSECTTPCSGSWLRDIWDWICEVLSDFKTWLKAKLMPQLPGIPFVSCQRGYRGVWRGDGIMHTRCHCGAEITGHVKNGTMRIVGPRTCRNMWSGTFPINAYTTGPCTPLPAPNYKFALWRVSA
notes: also called Bait NS4B (30%)/NS5A (69%)
binding result [10]: binds

B11: SID polypeptide of SEQ ID No 22, E2 (100%), HCV strain H77 nt 1823-1955 (other)
chain: GIVPAKSVCGPVYCFTPSPVVVGTTDRSGAPTYSWGANDTDVF
notes: as for B5
binding result [11]: binds

B12: SID polypeptide of SEQ ID No 25, E1 (100%), HCV strain H77 nt 1226-1458 (other)
chain: RRHWTTQDCNCSIYPGHITGHRMAWDMMMNWSPTAALVVAQLLRIPQAIMDMIAGAHWGVLAGIAYFSMVGNWAKV
notes: Intersection of yeast two-hybrid prey fragments; also called SID E1 (100%)
binding result [12]: binds

B13: SID polypeptide of SEQ ID No 18, NS4B (53%)/NS5A (46%), HCV strain H77 nt 6197-6310 (other)
chain: VTQLLRRLHQWISSECTTPCSGSWLRDIWDWICEVL
notes: Intersection of yeast two-hybrid prey fragments; also called SID NS4B (53%)/NS5A (46%)
binding result [13]: binds

B14: SID polypeptide of SEQ ID No 21, NS4B (100%), HCV strain H77 nt 5819-6080 (other)
chain: TAFVGAGLAGAAIGSVGLGKVLVDILAGYGAGVAGALVAFKIMSGEVPSTEDLVNLLPAILSPGALVVGVVCAAILRRHVGPGEGA
notes: Intersection of yeast two-hybrid prey fragments; also called SID NS4B (100%)
binding result [14]: binds

B15: SID polypeptide of SEQ ID No 3, Core (100%), HCV strain H77 nt 380-616 (other)
chain: NTNRRPQDVKFPGGGQIVGGVYLLPRRGPRLGVRATRKTSERSQPRGRRQPIPKARRPEGRTWAQPGYPWPLYGNEG
notes: as for B3
binding result [4]: binds

B16: SID polypeptide of SEQ ID No 20, NS5B (100%), HCV strain H77 nt 9083-9222 (other)
chain: not shown
notes: as for B6
binding result [15]: binds
